Experimental data from the supplement of paper PMC10126150.
± gives the standard deviation of the averaged measurements.

test system: ATP; experiment: switch fluorescence ratio, 500 uM ATP over buffer (Cy3 cluster intensity, sum of 5 cycles each) (fold (ratio)); higher = stronger signal-on switching upon ATP binding; sequences stand for … in TCGTCGGCAGCGTCAGATGTGTATAAGAGACAGTTTTTTTTTTTTTTTTTTTTTTTTT…TC; conditions: aptamer strand: ATP DNA aptamer (quencher-CACCTGGGGGAGTATTGCGGAGGAAGG + anchor), 100 nM annealed; ATP concentration: 500 uM
In short: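 Values give the fluorescence ratio for each switch-domain sequence, averaged from per-cluster ratios of summed target-cycle to summed buffer-cycle Cy3 intensity. The Cy3-labelled switching-strand clusters sat on a modified Illumina MiSeq flow-cell, were annealed to 100 nM quencher-labelled ATP aptamer, and were imaged in selection buffer, then after 15 min with 500 uM ATP at 22 °C. Five cycles ran with NaOH stripping and re-annealing between them, and clusters outside 100-1000 RFU were excluded.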
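Further: ATP exposure 15 min at 22 °C before imaging.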

In order of rising switch fluorescence ratio:
1. AGTATGGTGT  0.937 ± 0.044
2. AGTCTTAAGG  0.9459 ± 0.003
3. AGTGTGGAAT  0.954 ± 0.011
4. AGTGGAAGGG  0.957 ± 0.027
5. AGTGGTGTTG  0.9577 ± 0.0092
6. AGTGTAGTCT  0.961 ± 0.02
7. AGTGTGTGAA  0.962 ± 0.01
8. AGTCGGAACG  0.963 ± 0.015
9. AGTATTTGTG  0.97 ± 0.035
10. AGTGAGGGGT  0.97 ± 0.03
11. AGTTAATTGA  0.9704 ± 0.0093
12. AGTGCAAGTG  0.972 ± 0.011
13. AGTGGAAGCA  0.972 ± 0.031
14. AGTATGTGGA  0.9729 ± 0.0071
15. AGTCATCGGG  0.9728 ± 0.0011
16. AGTATGAGTT  0.9737 ± 0.0017
17. AGTTAGGGTA  0.9744 ± 0.0059
18. AGTATTTGAG  0.975 ± 0.023
19. AGTGTTACTG  0.975 ± 0.044
20. AGTCTTGGGG  0.977 ± 0.019
21. AGTGGTGAGT  0.977 ± 0.025
22. AGTGAGTCGG  0.979 ± 0.018
23. AGTGAGTGTA  0.979 ± 0.015
24. AGTGCGTGCG  0.979 ± 0.059
25. AGTGTGGGGT  0.979 ± 0.054
26. AGTATTTAGG  0.9808 ± 0.0043
27. AGTGGGTCGG  0.9824 ± 0.0097
28. AGTATTAGAG  0.983 ± 0.039
29. AGTGGGAGTG  0.983 ± 0.034
30. AGTCTAGGCG  0.985 ± 0.011
31. AGTGGGGGAA  0.985 ± 0.027
32. AGTGTCGCCT  0.985 ± 0.019
33. AGTCCAGTTT  0.986 ± 0.013
34. AGTCGGTTCG  0.986 ± 0.03
35. AGTGGATGGG  0.9858 ± 0.0031
36. AGTCGAAATG  0.989 ± 0.028
37. AGTGTGGTGG  0.98944 ± 7.4e-05
38. AGTCGTTCTG  0.99 ± 0.01
39. AGTGAATCTG  0.992 ± 0.085
40. AGTGATGCTT  0.992 ± 0.036
41. AGTTAGTGGA  0.9924 ± 0.00044
42. AGTCCTGGAG  0.993 ± 0.044
43. AGTTCGCTTT  0.993 ± 0.028
44. AGTGAGGCTC  0.994 ± 0.011
45. AGTTCCGTTT  0.994 ± 0.022
46. AGTATTTTTT  0.995 ± 0.01
47. AGTGTGATAG  0.995 ± 0.034
48. AGTTAGCAGA  0.995 ± 0.026
49. AGTGTAAGTA  0.996 ± 0.03
50. AGTGGTTGTA  0.997 ± 0.024
51. AGTGTTAGTG  0.997 ± 0.037
52. AGTTATTTGC  0.997 ± 0.024
53. AGTCGAGCGT  0.9976 ± 0.0034
54. AGTGGGAACC  0.998 ± 0.025
55. AGTTACCGGG  0.998 ± 0.044
56. AGTATGGGTA  1 ± 0.018
57. AGTATGGTTG  1 ± 0.02
58. AGTATTCAGG  1 ± 0.027
59. AGTATTGGAG  1.004 ± 0.0023
60. AGTCGGGCGT  1 ± 0.046
61. AGTCGTACGG  1.004 ± 0.0096
62. AGTCTCAGGC  1 ± 0.032
63. AGTGAGATGA  1 ± 0.04
64. AGTGATCAGG  1 ± 0.019
65. AGTGCGTTTG  1 ± 0.038
66. AGTGGCTTTT  1.002 ± 0.0081
67. AGTGTCCAGT  1 ± 0.028
68. AGTTACGGTG  1 ± 0.025
69. AGTTATCCAT  1.001 ± 0.0083
70. AGTTATTTGA  1 ± 0.031
71. AGTTCGGATG  1 ± 0.057
72. AGTGATATTT  1.01 ± 0.042
73. AGTGCGAGAG  1.01 ± 0.029
74. AGTGGTGGGT  1.01 ± 0.035
75. AGTGTAGGGA  1.01 ± 0.029
76. AGTGTGTGTG  1.013 ± 0.0024
77. AGTGTTAGAC  1.012 ± 0.0048
78. AGTTAAGAT  1.01 ± 0.022
79. AGTTACGGGC  1.01 ± 0.017
80. AGTTCATATA  1.013 ± 0.0011
81. AGTCCGGGAG  1.02 ± 0.026
82. AGTCTAACTC  1.02 ± 0.019
83. AGTGCCCGTA  1.02 ± 0.063
84. AGTGCCTGCG  1.02 ± 0.032
85. AGTTAAAACG  1.02 ± 0.011
86. AGTTCCGGGA  1.02 ± 0.067
87. AGTATCTTAC  1.03 ± 0.025
88. AGTGGGGTAC  1.03 ± 0.032
89. AGTGTGGGGA  1.03 ± 0.028
90. AGTCAATTAG  1.04 ± 0.012
91. AGTGACGGTA  1.04 ± 0.042
92. AGTGAGCAGC  1.04 ± 0.039
93. AGTGCCGGGA  1.04 ± 0.034
94. AGTTCAAACC  1.04 ± 0.062
95. AGTGGTTAGT  1.05 ± 0.027
96. AGTTCCCCTT  1.052 ± 0.0024
97. AGTTCCTTAG  1.05 ± 0.043
98. AGTGTAGCTT  1.07 ± 0.19
99. AGTGCGGGTG  1.13 ± 0.028
100. AGTGGGGCGC  1.29 ± 0.4
